Reference: patent US20100222280A1 (PROYECTO DE BIOMEDICINA CIMA S L, published 2010)

How the values were obtained:
biotinylated TGF-β1 = biotinylated TGF-β1 (Homo sapiens (Human), UniProt P01137 279-390, Biotinylated (site or sites not stated) for capture on streptavidin plates. The active cytokine is a disulfide-linked 25 kDa homodimer; one subunit is given.); assay: phage display biopanning on biotinylated TGF-β1 on streptavidin plates; clones among 108 colonies after 3 cycles
TGF-β1 (Roche) [1] = assay: cell-based or functional assay
Chain of TGF-β1 (Roche) (P01137 279-390): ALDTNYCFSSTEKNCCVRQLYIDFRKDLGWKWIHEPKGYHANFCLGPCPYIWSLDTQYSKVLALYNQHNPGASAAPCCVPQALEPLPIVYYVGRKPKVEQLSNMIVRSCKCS

[2] = target: TGF-β1 raised in mice by acute liver damage (CCl4) (mouse, UniProt P04202 279-390, limits assumed); assay: cell-based or functional assay
Chain of TGF-β1 raised in mice by acute liver damage (CCl4) (P04202 279-390 limits assumed): as the sequence (P01137 279-390) above, with A75S counted along it

TGF-β1 (Roche) [3] = assay: cell-based or functional assay; remark: listed apart in the source

Chain of biotinylated TGF-β1 (P01137 279-390 limits assumed, form in doubt): as the sequence (P01137 279-390) above

Binder	No. colonies (biotinylated TGF-β1) [colonies]	% Inhibition (Mv-1-Lu cell line growth reestablishment, 3H-thymidine) (TGF-β1 (Roche) [1]) [%]	% Inhibition (type I collagen mRNA induction, acute liver damage model in mice) [2] [%]	% Inhibition (Mv-1-Lu cell line growth reestablishment) (TGF-β1 (Roche) [3]) [%]
WHKYFLRRPLSVGLG (15-aa peptide) [peptide identified by SEQ ID NO: 12]	1	10.7		
RHLSHFKWLRSHGLD (15-aa peptide) [peptide identified by SEQ ID NO: 19]	1	9.71	12.1	
RIWFIPRSSWYERA [truncated peptide SEQ ID NO: 24 (T1)]				9.4
IPRSSWYERA [truncated peptide SEQ ID NO: 31 (T8)]				3.4
RFFTRFPWHYHASRL (15-aa peptide) [peptide identified by SEQ ID NO: 3]	41	25.4	2.09	
FIPRSSWYERA [truncated peptide SEQ ID NO: 30 (T7)]				-0.3
VPMALNHGVYVMVSS (15-aa peptide) [peptide identified by SEQ ID NO: 22]	1	4.13		
WFIPRSSWYERA [truncated peptide SEQ ID NO: 29 (T6)]				2.7
RKWFLQHRRMPVSVL (15-aa peptide) [peptide identified by SEQ ID NO: 13]	6	18	32.7	
HRISHFAHRYLARLH (15-aa peptide) [peptide identified by SEQ ID NO: 7]	2	-25		
WFIPRSSWY [truncated peptide SEQ ID NO: 28 (T5)]				3.1
KRIWFIPRSSWYER [truncated peptide SEQ ID NO: 33 (T10)]				31.4
RIWFIPRSSWYER [truncated peptide SEQ ID NO: 25 (T2)]				6.2
KRIWFIPRSS [truncated peptide SEQ ID NO: 35 (T12)]				6
IWFIPRSSWYERA [truncated peptide SEQ ID NO: 26 (T3)]				4.5
GWHSLLHSRYHRLAA (15-aa peptide) [peptide identified by SEQ ID NO: 9]	1	4.98	26.6	
KRIWFIPRSSWY [truncated peptide SEQ ID NO: 34 (T11)]				34.4
TSLDASIIWAMMQN [peptide identified as P144 in the Spanish patent application ES 2146552 A1 (SEQ ID NO: 51)]		7.26	-3.51	

Binder	No. colonies (biotinylated TGF-β1) [colonies]	% Inhibition (Mv-1-Lu cell line growth reestablishment, 3H-thymidine) (TGF-β1 (Roche) [1]) [%]	% Inhibition (type I collagen mRNA induction, acute liver damage model in mice) [2] [%]	% Inhibition (Mv-1-Lu cell line growth reestablishment) (TGF-β1 (Roche) [3]) [%]
WHKYFLRRPLSVRTR (15-aa peptide) [peptide identified by SEQ ID NO: 11]	4	27.4	39.3	
KRIWFIPRS [truncated peptide SEQ ID NO: 36 (T13)]				6.2
RRWVRYPVHLHSPIV (15-aa peptide) [peptide identified by SEQ ID NO: 5]	1	15.8		
RRFHFHSRMVAVDNS (15-aa peptide) [peptide identified by SEQ ID NO: 20]	1	6.16	1.41	
IWFIPRSSWYE [truncated peptide SEQ ID NO: 27 (T4)]				1.4
RLHGHRSHRFTHVAQ (15-aa peptide) [peptide identified by SEQ ID NO: 16]	1	9.47		
PRSSWYERA [truncated peptide SEQ ID NO: 32 (T9)]				3.8
KRIWFIPRSSWYERA (15-aa peptide) [TGF-β1 inhibitor peptide P17 (SEQ ID NO: 17)]	3	38.9	93.1	28.5
GWITFHRRHHDRVLS (15-aa peptide) [peptide identified by SEQ ID NO: 15]	1	13.4	14.3	
SGRRHLHRHHIFSLP (15-aa peptide) [peptide identified by SEQ ID NO: 14]	2	3.62	49.8	
FVWVRFHRLPRQIYT (15-aa peptide) [peptide identified by SEQ ID NO: 10]	1	-4.58		
WHWRHRIPLQLAAGR (15-aa peptide) [peptide identified by SEQ ID NO: 8]	2	15.7		
HVRLHHYLRHRSLPN (15-aa peptide) [peptide identified by SEQ ID NO: 21]	1	13.4		
MPLSRYWWLFSHRPR (15-aa peptide) [peptide identified by SEQ ID NO: 18]	1	21.3		
RLAHSHRHRSHVALT (15-aa peptide) [peptide identified by SEQ ID NO: 4]	18	5.53	51.3	
DRRIFWWSLRSAPGA (15-aa peptide) [peptide identified by SEQ ID NO: 1]	6	3.33	0.69	
DRRIFWWSNRSAPGA (15-aa peptide) [peptide identified by SEQ ID NO: 2]	1	-0.96	36.6	
PPYHRFWRGHRHAVQ (15-aa peptide) [peptide identified by SEQ ID NO: 6]	12	12.8	74.9	
